These results are taken from patent US20250170263A1 (AbbVie / Abbott, published 2025).

For test [1], the target named is T1, wt EGFR overexpressed on the surface of A431 (A-431, human epidermoid carcinoma) cells (human, UniProt P00533 25-1210).
T1 construct: Endogenous receptor of the tumor cell line; also called wt EGFR (A431); wild type human EGFR
Nature of the test: FACS on A-431 cells, 1 h at 4 C, AlexaFluor 488 secondary antibody, geometric mean fluorescence. On the procedure:
To assay binding of AM2-AAA to cell surface overexpressed wt EGFR and to mutant forms of EGFR including the activating mutations found in NSCLC (mutEGFR), tumor cells overexpressing wt EGFR (A431) and mutEGFR (NCI-H1650) were assessed by fluorescence activated cell sorting (FACS).
Cells were harvested from flasks when at approximately 1.5×10⁶ cells/mL. Cells were washed once in PBS/1% FBS (FACS buffer) then resuspended at 2.5×10⁶ cells/mL in FACS buffer. 50 μL of cells were added to a round bottom 96-well plate. 50 μL of a 2× concentration of mAb/ADC (final concentrations are indicated in the figures) was added to wells and the plate was incubated at 4° C. for one hour. The cells were washed twice in FACS buffer and resuspended in 50 μL of a 1:100 dilution of secondary Ab (AlexaFluor 488, Invitrogen, 11013) diluted in FACS buffer. The plate was incubated at 4° C. for one hour and washed twice with FACS buffer. Cells were resuspended in 100 μL of PBS/1% formaldehyde and analyzed on a Becton Dickinson FACSCanto II flow cytometer. Data was analyzed using WinList flow cytometry analysis software.

For test [2], the target named is mutEGFR on NCI-H1650 (non-small cell lung cancer) cells (human). Nature of the test: cell-based or functional assay.
In test [3] the target is T2, truncated wild-type EGFR 1-525, [EGFR1(h)(1-525)]-LESRGPF-Myc-NMHTG-6His (human, UniProt P00533 25-525).
T2 construct: Recombinant soluble truncated ECD secreted from HEK293 cells; also called EGFRs1-501; ECD EGFR 1-525; not shown: Myc tag
The test can be described thus: SPR, Biacore T200, 25 C, anti-Fc capture of ADC, EGFR ECD as analyte, 1:1 model. On the procedure:
(§1) Binding kinetics for AM2 and AM2-AAA for recombinant soluble EGFR extracellular domains (ECDs) were determined by surface plasmon resonance-based measurements made on a Biacore T200 instrument (GE Healthcare) at 25° C. using an anti-Fc capture assay approach. Recombinant soluble ECDs for the three isoforms of EGFR were expressed from transiently transfected HEK293 cells as secreted proteins with a C-terminal myc and histidine tag, and purified by Ni-IMAC (immobilized metal affinity chromatography) and SEC. In particular, the EGFR ECD tested included amino acids 1-645 of EGFR fused to a myc and histidine tag [(EGFR (1-645)-LESRGPF-Myc-NMHTG-6His (“LESRGPF” (SEQ ID NO: 27))]. The EGFRvIII variant was also fused to a myc and histidine tag (EGFR(h)(1-29)-G-(298-645)-LESRGPF-Myc-NMHTG-6His), as was the ECD EGFR 1-525 [EGFR1(h)(1-525)]-LESRGPF-Myc-NMHTG-6His (“LESRGPF” (SEQ ID NO: 28))]. All ECDs were expressed with the signal sequence […] which was cleaved during secretion.
(§2) Chip preparation and binding kinetic measurements were made in the assay buffer HBS-EP+ (10 mM Hepes, pH 7.4, 150 mM NaCl, 3 mM EDTA, 0.05% Tween 20). For anti-Fc capture chip preparation, approximately 2000 RU of goat anti-human IgG Fc polyclonal antibody (Thermo Fisher Scientific Inc., cat. 31125), diluted to 25 μg/mL in 10 mM sodium acetate (pH 4.5) was directly immobilized across a CM5 biosensor chip using a standard amine coupling kit according to manufacturer's instructions and procedures (GE Healthcare). Unreacted moieties on the biosensor surface were blocked with ethanolamine. For binding kinetics measurements each assay cycle consisted of the following steps: (1) capture of test antibody on test surface only; (2) analyte injection (EGFR ECD or buffer only) over both reference and test surface (240 μL at 80 μl/min), after which the dissociation was monitored for 900 seconds at 80 μl/min; (3) regeneration of the capture surface by 10 mM Glycine-HCl, pH 1.5 injections over both reference and test surface.
(§3) For kinetic determinations, analytes were randomized 3-fold dilution series from 3 uM top dose. During the assay, all measurements were referenced against the capture surface alone (i.e., with no captured test antibody) and buffer-only injections were used for secondary referencing.

The target in test [4] is T3, EGFRvIII (hEGFR de2-7) [EGFR(H)(1-29)-G-(298-645)], EGFR(h)(1-29)-G-(298-645)-LESRGPF-Myc-NMHTG-6His (human, UniProt P00533 298-645).
T3 construct: Recombinant soluble ECD secreted from HEK293 cells; not shown: Myc tag
The test is described as above. The protocol:
as §1, §2, §3

The target of test [5] is T1, wt EGFR overexpressed on the surface of …. The test can be described thus: cell-based or functional assay.
For test [6] the target is unchanged. The test can be described thus: cell-based or functional assay. The source holds these as a separate data set.
In test [7] the target is T4, wild-type EGFR extra-cellular domain (ECD), EGFR (1-645)-LESRGPF-Myc-NMHTG-6His (human, UniProt P00533 25-645).
T4 construct: Recombinant soluble ECD secreted from HEK293 cells; also called hEGFR WT; EGFR(h)(1-645); not shown: Myc tag
Nature of the test: SPR, Biacore T200, ADC captured by anti-Fc, EGFR ECD as analyte. The protocol: (§4) Binding kinetics for AM2 and AM2-AAA for recombinant soluble EGFR extracellular domains (ECDs) were determined by surface plasmon resonance-based measurements made on a Biacore T200 instrument (GE Healthcare) at 25° C. using an anti-Fc capture assay approach. Recombinant soluble ECDs for the three isoforms of EGFR were expressed from transiently transfected HEK293 cells as secreted proteins with a C-terminal myc and histidine tag, and purified by Ni-IMAC (immobilized metal affinity chromatography) and SEC. […]
(§5) Chip preparation and binding kinetic measurements were made in the assay buffer HBS-EP+ (10 mM Hepes, pH 7.4, 150 mM NaCl, 3 mM EDTA, 0.05% Tween 20). […] For binding kinetics measurements each assay cycle consisted of the following steps: (1) capture of test antibody on test surface only; (2) analyte injection (EGFR ECD or buffer only) over both reference and test surface (240 μL at 80 μl/min), after which the dissociation was monitored for 900 seconds at 80 μl/min; (3) regeneration of the capture surface by 10 mM Glycine-HCl, pH 1.5 injections over both reference and test surface. […]

In test [8] the target is T2, truncated wild-type EGFR 1-525, …. Nature of the test: SPR, Biacore T200, 25 C, anti-Fc capture of antibody, EGFR ECD as analyte, 1:1 model. The protocol: as §1, §2, §3
Test [9] addresses T3, EGFRvIII (hEGFR de2-7) …. The description is as above. On the procedure:
as §1, §2, §3

Test [10] addresses T4, wild-type EGFR extra-cellular domain …. Nature of the test: SPR, Biacore T200, antibody captured by anti-Fc, EGFR ECD as analyte. On the procedure: as §4, §5

B1: AM2-AAA ADC (antibody, human IgG1, kappa, L234A L235A, DAR 2, V domains shown)
VH: EVQLQESGPGLVKPSQTLSLTCTVSGYSISNDFAWNWIRQPPGKGLEWMGYISYKGNTRYQPSLKSRITISRDTSKNQFFLKLNSVTAADTATYYCVTASRGFPWWGQGTLVTVSS
VL: DIQMTQSPSSMSVSVGDRVTITCHSSQDINSNIGWLQQKPGKSFKGLIYHGTNLDDGVPSRFSGSGSGTDYTLTISSLQPEDFATYYCVQYAQFPWTFGGGTKLEIKR
modifications: AAA synthon (Bcl-xL inhibitor drug-linker) conjugated through C220 of the heavy chain (i.e., C219 of SEQ ID NO: 1); average DAR 2
notes: Antibody-drug conjugate: the AM2 antibody conjugated to the AAA synthon, average DAR 2; The conjugation site (C220) is stated only in the summary and embodiments
As for B1, the 50% effective concentration (EC50 (read off the curve)) in test [1] was roughly 100 nM. In addition, the “IC50 (read off the curve), % Bim bound to BCL-xl in NCI-H1650 cells” value in test [2] was roughly 20 nM. In test [3], this molecule gave a Kd of 400 nM, an off-rate constant (koff) of 0.0012 s⁻¹ and an on-rate (kon) of 2900 M⁻¹ s⁻¹. In addition, in test [4], the dissociation constant Kd was determined as 4.9 nM, the off-rate constant (koff) worked out at 0.00017 s⁻¹ and the kon was 35000 M⁻¹ s⁻¹. The “EC50 (read off the curve), caspase 3/7 activity fold change in A431 cells” value in [5] was roughly 7 nM. Also, the “IC50 (read off the curve), % Bim bound to BCL-xl in A-431 cells” value in [6] is roughly 3 nM. Besides, the binding result in [7] is recorded as “no binding (tested: 3 µM top dose)”.

B2: AM2 antibody (antibody, human IgG1, kappa, L234A L235A, V domains shown)
VH: B1 VH
VL: B1 VL
notes: Humanized IgG1, z,a allotype, with the LALA mutation (L234A, L235A) and LC:C214A (C6v1); Expressed in HEK293 cells; also called EGFR AM2 antibody
Regarding B2, in [1], the “EC50 (read off the curve)” value is roughly 80 nM. In test [8], this molecule had a Kd of 420 nM, a koff of 0.0012 s⁻¹ and a kon of 2800 M⁻¹ s⁻¹. In test [9], this molecule displayed a dissociation constant (Kd) of 5 nM, a koff of 0.00017 s⁻¹ and a kon of 33000 M⁻¹ s⁻¹. Moreover, the binding result in test [10] is on record as “no binding (tested: 3 µM top dose)”.
